Experimental data taken from article PMC3721678.

Assays:
Test in all cases: SPR
[1] = molecular target: IgA1-Fc Fc (Homo sapiens) (UniProt P01876); conditions: cited from earlier work
[2] = molecular target: Hinge region glycopeptide (HR-GalNAc) (human)
[3] = molecular target: monomeric IgA1Mce myeloma protein (human)
[4] = molecular target: monomeric IgA1κ myeloma protein (human)
[5] = molecular target: monomeric IgA1λ myeloma protein (human)
[6] = molecular target: polymeric IgA1Ale myeloma protein (human)
[7] = molecular target: polymeric IgA1Mce myeloma protein (human)
[8] = molecular target: polymeric IgA1κ myeloma protein (human)
[9] = molecular target: polymeric IgA1λ myeloma protein (human)

IgA1-Fc Fc (Homo sapiens), sequence (P01876 120-340): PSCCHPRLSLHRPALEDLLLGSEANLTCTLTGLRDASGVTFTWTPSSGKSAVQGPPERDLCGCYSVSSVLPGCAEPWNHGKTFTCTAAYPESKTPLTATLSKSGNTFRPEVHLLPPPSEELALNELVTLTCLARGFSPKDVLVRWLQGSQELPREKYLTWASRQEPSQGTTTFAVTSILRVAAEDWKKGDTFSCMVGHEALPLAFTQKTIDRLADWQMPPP
FcαRI, sequence (P24071 22-287): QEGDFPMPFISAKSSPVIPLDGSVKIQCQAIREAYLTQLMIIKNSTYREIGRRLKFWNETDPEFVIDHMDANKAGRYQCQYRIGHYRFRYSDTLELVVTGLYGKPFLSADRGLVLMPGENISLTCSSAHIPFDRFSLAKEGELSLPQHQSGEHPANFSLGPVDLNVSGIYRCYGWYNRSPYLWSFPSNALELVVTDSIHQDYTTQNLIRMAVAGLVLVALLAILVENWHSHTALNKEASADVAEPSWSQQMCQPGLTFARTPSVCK

FcαRI (from UniProt P24071)
Kd [1]: 9 nM

Helix aspersa agglutinin (natural protein)
KD1 (two-site model, apparent) [2]: 0.11 µM | KD2 (two-site model, apparent) [2]: 7 µM | KD1 (two-site model, apparent) [3]: 7.2 µM | KD2 (two-site model, apparent) [3]: 76 µM | KD1 (two-site model, apparent) [4]: 1.8 µM | KD2 (two-site model, apparent) [4]: 8 µM | KD1 (two-site model, apparent) [5]: 6.2 µM | KD2 (two-site model, apparent) [5]: 73 µM | KD1 (two-site model, apparent) [6]: 1 µM | KD2 (two-site model, apparent) [6]: 14 µM | KD1 (two-site model, apparent) [7]: 5.6 µM | KD2 (two-site model, apparent) [7]: 70 µM | KD1 (two-site model, apparent) [8]: 1.7 µM | KD2 (two-site model, apparent) [8]: 25 µM | KD1 (two-site model, apparent) [9]: 3 µM | KD2 (two-site model, apparent) [9]: 28 µM

Helix pomatia agglutinin (natural protein)
KD1 (two-site model, apparent) [2]: 0.045 µM | KD2 (two-site model, apparent) [2]: 2.3 µM | KD1 (two-site model, apparent) [3]: 2.3 µM | KD2 (two-site model, apparent) [3]: 24 µM | KD1 (two-site model, apparent) [4]: 0.76 µM | KD2 (two-site model, apparent) [4]: 10 µM | KD1 (two-site model, apparent) [5]: 1.8 µM | KD2 (two-site model, apparent) [5]: 21 µM | KD1 (two-site model, apparent) [6]: 0.58 µM | KD2 (two-site model, apparent) [6]: 6 µM | KD1 (two-site model, apparent) [7]: 1.1 µM | KD2 (two-site model, apparent) [7]: 7 µM | KD1 (two-site model, apparent) [8]: 0.65 µM | KD2 (two-site model, apparent) [8]: 11 µM | KD1 (two-site model, apparent) [9]: 1.1 µM | KD2 (two-site model, apparent) [9]: 5 µM
